Data on two molecules can be found in US20250136683A1 (SINOMAB BIOSCIENCE, published 2025).

For assay [1], the target named is T1, LRID (murine IgG anti-idiotype antibody against the antigen binding site of SM03 and SM06).
T1 construct: An scFv from a phage library, re-engineered as a murine IgG; also called anti-idiotype antibody for SM03; surrogate antigen for CD22
Kind of assay: direct ELISA, plate coated with LRID.

The target in assay [2] is T2, recombinant human CD22 encompassing domains 2-4 (CD22d2-4) (human, UniProt P20273 139-417).
T2 construct: also called domain 2-4 of recombinant human CD22 antigen
Kind of assay: direct ELISA, plate coated with CD22d2-4. In general terms: An ELISA detects its analyte on a solid surface through an enzyme-linked reagent.

Assay [3] deals with LRID Fab fused to the GPI signal sequence from decay accelerating factor (DAF), on SP2/0 cells (Fab-GPI). Kind of assay: cell-based or functional assay.
The target of assay [4] is LRID Fab fused to the transmembrane portion of glycophorin A, on SP2/0 cells (Fab-GlycoA). Kind of assay: cell-based or functional assay.
Assay [5] deals with T2, recombinant human CD22 encompassing …. Nature of the assay: ELISA, plate coated with refolded CD22d2-4, % Binding. The procedure: Preliminary epitope mapping was done by expressing different combinations of extracellular domains encompassing the human CD22 sequence in bacteria and the refolded recombinant proteins were tested for binding to SM03 in an ELISA assay. […] There are 6 extracellular domains for human CD22 antigen that are expressed on the surface of matured B cells. […] Briefly, the DNA sequence encoding different domain regions of human CD22 were cloned into a pET bacterial expression vector preceded with a pelB sequence (as described in Ward et al. (1989) Nature 341:544-546). The expression vectors were used to transform bacterial host cell BL21 (DE3) pLysS (Promega, Madison, WI) using standard techniques in molecular biology: expression of the transfected genes were induced by the addition of 1 mM of isopropyle β-D-thiogalactoside (IPTG). After incubating at 37° C. for 4 hours with orbital shaking at 250 rpm, the bacteria were pelleted by centrifugation at 6,000 rpm for 15 minutes. Cells were lysed in lysis buffer (50 mM Tris-HCl, pH 8 containing 0.1 M NaCl, 5 mM EDTA, 0.1% NaN₃, 0.5% TritonX-100, 100 μM PMSF and 1 mM DTT) with the aid of a glass homogenizer. After French press treatment, 2.5 mM MgCl₂ was added to chelate the EDTA, and 0.1 mg/ml Lysozyme and 0.01 mg/ml DNase were added and the mixture was incubated at room temperature for 20 minutes. […]

Assay [6] concerns the target T3, human recombinant CD22 (PeproTech) (human, UniProt P20273 20-687, limits assumed).
T3 construct: Bought protein immobilized on a CM5 chip; also called recombinant human CD22 antigen; human CD22 antigen
Nature of the assay: SPR (BIAcore), CD22 immobilized on CM5 chip, SM03 injected. The method, then:
Affinity of anti-CD22 antibodies against human CD22 was performed using BIAcore (GE Healthcare Life Sciences, Piscataway, NJ) according to standard procedures. Briefly, human recombinant CD22 (20 μg/ml, PeproTech, Rocky Hill, NJ) was immobilized on carboxymethylated dextran-coated CM5 sensor chip. The chip surface was firstly activated with N-ethyl-N′-(3-[…]) carbodiimide hydrochloride (EDC) and N-hydroxysuccinimide (NHS). […] The dissociation was studied by washing with running buffer for 3 min. The chip surface was then regenerated by injection with 50 mM glycine-Cl for 60 s. Kinetic parameters including ka (association rate constant) and kd (dissociation rate constant) were estimated using the BIA evaluation software. The specific binding curves were normalized by subtracting the control curve.
(Surface plasmon resonance follows binding to a sensor surface in real time, without labels.)

T1 sequence (VH, as listed by the source, chain 1 of 2): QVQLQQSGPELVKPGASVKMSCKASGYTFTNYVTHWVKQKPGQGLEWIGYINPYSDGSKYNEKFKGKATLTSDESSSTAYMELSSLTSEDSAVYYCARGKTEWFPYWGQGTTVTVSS
T1 sequence (VL, as listed by the source, chain 2 of 2): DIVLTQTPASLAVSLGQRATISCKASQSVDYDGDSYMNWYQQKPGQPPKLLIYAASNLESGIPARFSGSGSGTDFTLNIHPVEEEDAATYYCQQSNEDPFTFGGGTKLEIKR
Sequence of LRID Fab fused to the transmembrane portion of glycophorin A, on SP2/0 cells (Fab-GlycoA) (VH, as listed by the source, chain 1 of 2): as the sequence (VH, as listed by the source, chain 1 of 2) above
Sequence of LRID Fab fused to the transmembrane portion of glycophorin A, on SP2/0 cells (Fab-GlycoA) (VL, as listed by the source, chain 2 of 2): as the sequence (VL, as listed by the source, chain 2 of 2) above
Sequence of LRID Fab fused to the GPI signal sequence from decay accelerating factor (DAF), on SP2/0 cells (Fab-GPI) (VH, as listed by the source, chain 1 of 2): as the sequence (VH, as listed by the source, chain 1 of 2) above
Sequence of LRID Fab fused to the GPI signal sequence from decay accelerating factor (DAF), on SP2/0 cells (Fab-GPI) (VL, as listed by the source, chain 2 of 2): as the sequence (VL, as listed by the source, chain 2 of 2) above

B1: SM06 (antibody, V domains shown)
VH: EVQLVESGGGLVQPGGSLRLSCAASGFSFSIYDMSWVRQAPGKGLEWVAYISSGGGTTYYPDTVKGRFTISRDNAKNSLYLQMNSLRVEDTALYYCARHSGYGSSYGVLFAYWGQGTLVTVSS
VL: DIQLTQSPSSLSASVGDRVTISCRASQDISNYLNWYQQKPGKAPKLLIYYTSILHSGVPSRFSGSGSGTEFTLTISSLQPEDFATYFCQQGNTLPWTFGGGTKVEIKR
notes: Framework-patched (humanized) anti-CD22 antibody with human constant regions; also called framework-patched (humanized) version of SM03
Broadly, the EC50 is the concentration at which the effect is half-maximal. For B1, the EC50 came to 0.065 µg/mL in assay [1] and 0.14 µg/mL in assay [2].

B2: SM03 (antibody, V domains shown)
VH: QVQLQESGGGLVKPGGSLKLSCAASGFAFSIYDMSWVRQTPEKRLEWVAYISSGGGTTYYPDTVKGRFTISRDNAKNTLYLQMSSLKSEDTAMYYCARHSGYGSSYGVLFAYWGQGTLVTVSS
VL: DIQLTQTTSSLSASLGDRVTISCRASQDISNYLNWYQQKPDGTVKLLIYYTSILHSGVPSRFSGSGSGTDYSLTISNLEQEDFATYFCQQGNTLPWTFGGGTKLEIKR
notes: Chimeric antibody against human CD22: murine variable regions with human constant regions; The embodiments speak of an IgG1 heavy chain and kappa light chain constant region; also called anti-CD22 antibody SM03; chimeric anti-CD22 antibody
What is called EC50 (read off the curve) is the midpoint of the concentration-response curve. What is called Kd is the concentration at which binding is half-saturated. In general, koff refers to the rate constant with which the complex falls apart. What is called kon is the second-order rate constant of association. In the case of B2, the “CMC killing of surrogate target cells, EC50” value in assay [3] was 220 µg/mL. Moreover, the “CMC killing of surrogate target cells, EC50” value in assay [4] was determined as 130 µg/mL. Also, the “EC50 (read off the curve)” value in assay [5] was about 0.02 µg/mL. In assay [1], this molecule registered an EC50 of 0.08 µg/mL. For the same molecule, in assay [6], the Ka came to 8.2e+08 M⁻¹, the Kd worked out at 1.22 nM, the koff was 0.0137 s⁻¹ and the kon is 1.13e+07 M⁻¹ s⁻¹. The EC50 in assay [2] was found to be 0.1 µg/mL.
